In data set [1] the test system is gliadin 14 mer PQPQLPYPQPQLPY
The data set is classed as biochemical, wheat. The note with it: 4 h, 37° C., 1 mM CoCl2, pH7.2.

The subject of another data set is gliadin 33 mer. The data set can be described thus: Digestion of gliadin 33 mer (RP-HPLC, ESI-MS). The data set is classed as biochemical, wheat.
Another data set relates to desMet-G-CSF. The data set can be described thus: Digestion of desMet-G-CSF with DPPIV. The following applies: overnight 37° C., E/S 1/20 (w:w).
Data set [2] is described as follows: Enzymatic activity of T. rubrum AMPP at various pH values (FIG. 4). The class given is biochemical. The text has this: FIG. 4 is a graph of the enzymatic activity of T. rubrum AMPP (aminopeptidase P) at various pH values. It appears that AMPP has activity over a broad range of pH values, from pH 6 to 11.
Data set [3] can be described thus: Enzymatic activity of T. rubrum AMPP at various temperatures (FIG. 5). The class given is biochemical. The source says:
FIG. 5 is a graph of the enzymatic activity of T. rubrum AMPP at various temperatures.

Data set [4] is described as follows: Aminopeptidase activity assay with fluorogenic aminoacyl-AMC substrates. The data set is classed as biochemical. How it is done: (§1) Aminopeptidase activity was determined using different fluorogenic aminoacyl-4-methylcoumaryl-7-amide derivatives of peptides and the internally quenched fluorogenic substrate Lys(Abz)-Pro-Pro-pNA for specific determination of aminopeptidase P activity. Stockel et al, Adv Exp. Med. Biol. 421:31-35 (1997). All substrates were from Bachem (Bubendorf, Switzerland). Substrate stock solutions were prepared at 0.1 M according to the recommendations of the manufacturer and stored at −20° C. The reaction mixture contained a concentration of 5 mM substrate and enzyme preparation (between 56 and 2,662 ng per assay depending on the cleavage activity of each enzyme for the substrates) in 25 μl of 50 mM Tris-HCl buffer adjusted at the optimal pH for each LAP (between 7 and 8). After incubation at 37° C. for 60 min, the reaction was terminated by adding 5 μl of glacial acetic acid and the reaction mixture was diluted with 3.5 ml of water. The released 7-amino-4-methylcoumarin (AMC) was measured using a spectrofluorophotometer (Perkin Elmer LS-5 fluorometer, Zurich, Switzerland) at an excitation wavelength of 370 nm and an emission wavelength of 460 nm. A standard curve made with synthetic AMC was used to assess the released AMC. The released diprolyl-p-nitroanilide was measured at an excitation wavelength of 310 nm and an emission wavelength of 410 nm. The LA activities were expressed in mnoles of released AMC or pNA/min/μg protein.
Table 15 details the hydrolytic activity of different LAPs toward various aminoacyl-MCA comparison (%) to Leu-MCA used as a standard.

A short description of data set [5]: Aminopeptidase P activity assay. The data set is classed as biochemical. The following applies: substrate Lys(Abz)-Pro-Pro-pNA, 5 mM, 37° C., 60 min. How it is done:
as §1

Another data set concerns Ala-proNPY. The data set can be described thus: Digestion of Ala-proNPY with ruLAP2. The class given is biochemical. The note with it: overnight 37° C. The protocol:
The digested material was isolated by RP-HPLC and characterized by ESI-MS. […] The same result is obtained at an 1:[…] ratio. Digestion halts when the enzyme reaches a Xaa-Pro-motif, which in case of proNPY is Tyr-Pro. Conditions of incubation were the same as for Gly-Ser-proNPY.

For a further data set, the system named is denatured casein. The data set can be described thus: Digestion of full-length polypeptide chain (denatured casein). The data set is classed as biochemical. The following applies: partially purified, in the presence of a trypsin-like endoprotease from the P. pastoris expression system.

“Also recorded” adds a separate entry of the source.

For “ruDPPIV: T. rubrum dipeptidylpeptidase IV, 775 amino acid residues (SEQ ID NO: 35)”, the “digestion of the 14 mer” value in data set [1] is “not able to hydrolyse the peptide”. Further, the “digestion of the 33 mer” value with gliadin 33 mer (37° C., 1 mM CoCl2, pH7.2) is listed as “not a substrate”. The “cleavage of N-terminal dipeptide from desMet-G-CSF” value with desMet-G-CSF is on record as “Traces of undigested material are still present”.

B1: AMPP: T. rubrum aminopeptidase P (SEQ ID NO: 24) (protein, listed as Trichophyton rubrum)
chain: MPPPPVDTTQRLAKLRELMAQNKVDVYIVPSEDSHQSEYIAPCDGRRAFISSFTGSAGCAIVSMSKAALSTDGRYFSQAAKQLDANWILLKRGVEGVPTWEEWTAEQAETRQGCGSDARKLSQTLKTTGGSLVGIDQNLIDAVWGDERPARPANQITVQPVERAGKSFEEKVEDLRKELTAKKRSAMVISSKFLYKWYLSLYTKSHADWCSIPYNPVFFSYAIVTPSVAELYVDESKLSPEARKHLEGKVVLKPYESIFQASKVLAESKASASSGSSGKFLLSNKASWSLSLALGGEQNVVEVRSPITDAKAIKNEVELEGFRKCHIRDGAALIEYFAWLENALIKEGAKLDEVDGADKLFEIRKKYDLFVGNSFDTISSTGANGATIHYKPEKSTCAIIDPKAMYLCDSGGQYLDGTTDTTRTLHFGEPTEFQKKAYALVLKGHISIDNAIFPKGTTGYAIDSFARQHLWKEGLDYLHGTGHGVGSFLNVHEGPMGIGSRAQYAEVPLSASNSLDIMKTATSAFVSRVSSMTAYSSFFILTASLDLVICKEVQTAHKFGDKPFLGFESITLVPFCQKLLDASLLTEAERKWVNDYHAKVWEKTSPFFEKDELTTAWLKRETQPI
As for B1, the “pH range of activity” value in [2] is reported as 6 to 11 pH. In data set [3], the optimal temperature is on record as 50 C and the “temperature range of activity” value is given as 25 to 60 C.

B2: ruLAP2: T. rubrum leucine aminopeptidase, 495 amino acid residues (SEQ ID NO: 3) (protein, listed as Trichophyton rubrum)
chain: MKSQLLSLAVAVTTISQGVVGQEPFGWPFKPMVTQDDLQNKIKLKDIMAGVEKLQSFSDAHPEKNRVFGGNGHKDTVEWIYNEIKATGYYDVKKQEQVHLWSHAEAALNANGKDLKASAMSYSPPASKIMAELVVAKNNGCNATDYPANTQGKIVLVERGVCSFGEKSAQAGDAKAAGAIVYNNVPGSLAGTLGGLDKRHVPTAGLSQEDGKNLATLVASGKIDVTMNVISLFENRTTWNVIAETKGGDHNNVIMLGAHSDSVDAGPGINDNGSGSIGIMTVAKALTNFKLNNAVRFAWWTAEEFGLLGSTFYVNSLDDRELHKVKLYLNFDMIGSPNFANQIYDGDGSAYNMTGPAGSAEIEYLFEKFFDDQGIPHQPTAFTGRSDYSAFIKRNVPAGGLFTGAEVVKTPEQVKLFGGEAGVAYDKNYHRKGDTVANINKGAIFLNTRAIAYAIAEYARSLKGFPTRPKTGKRDVNPQYSKMPGGGCGHHTVFM
For the molecule B2, in data set [4], the “hydrolysis of Leu-AMC” value was “efficiently hydrolyzed”. The “hydrolytic activity toward Ala-AMC in comparison (%) to Leu-MCA” value in [4] (substrate Ala-AMC, 5 mM, 37° C., 60 min) is 33.3%. Also, the “hydrolytic activity toward Arg-AMC in comparison (%) to Leu-MCA” value in [4] (substrate Arg-AMC, 5 mM, 37° C., 60 min) worked out at 1.9%. For the same molecule, the “hydrolytic activity toward Asn-AMC in comparison (%) to Leu-MCA” value in data set [4] (substrate Asn-AMC, 5 mM, 37° C., 60 min) is recorded as 114.6%. In data set [4] (substrate Asp-AMC, 5 mM, 37° C., 60 min), the “hydrolytic activity toward Asp-AMC in comparison (%) to Leu-MCA” value turned out to be 3.8%. Moreover, in data set [4] (substrate Cys-AMC, 5 mM, 37° C., 60 min), the “hydrolytic activity toward Cys-AMC in comparison (%) to Leu-MCA” value was 14.9%. Besides, the “hydrolytic activity toward Gln-AMC in comparison (%) to Leu-MCA” value in [4] (substrate Gln-AMC, 5 mM, 37° C., 60 min) is 49.9%. Also, the “hydrolytic activity toward Glu-AMC in comparison (%) to Leu-MCA” value in data set [4] (substrate Glu-AMC, 5 mM, 37° C., 60 min) came out at 3.7%. In data set [4] (substrate Gly-AMC, 5 mM, 37° C., 60 min), the “hydrolytic activity toward Gly-AMC in comparison (%) to Leu-MCA” value stood at 3.3%. Also, the “hydrolytic activity toward Gly-Pro-AMC in comparison (%) to Leu-MCA” value in data set [4] (substrate Gly-Pro-AMC, 5 mM, 37° C., 60 min) stood at 7.2%. Further, the “hydrolytic activity toward His-AMC in comparison (%) to Leu-MCA” value in data set [4] (substrate His-AMC, 5 mM, 37° C., 60 min) amounted to 0.6%. The “hydrolytic activity toward Hyp-AMC in comparison (%) to Leu-MCA” value in [4] (substrate Hyp-AMC, 5 mM, 37° C., 60 min) was determined as 14.2%. Moreover, the “hydrolytic activity toward Ile-AMC in comparison (%) to Leu-MCA” value in data set [4] (substrate Ile-AMC, 5 mM, 37° C., 60 min) is reported as 6.4%. Further, the “hydrolytic activity toward Leu-AMC in comparison (%) to Leu-MCA used as a standard” value in data set [4] (substrate Leu-AMC (standard), 5 mM, 37° C., 60 min) stood at 100.0%. Moreover, the “hydrolytic activity toward Lys-AMC in comparison (%) to Leu-MCA” value in [4] (substrate Lys-AMC, 5 mM, 37° C., 60 min) is given as 4.6%. In addition, in data set [4] (substrate Met-AMC, 5 mM, 37° C., 60 min), the “hydrolytic activity toward Met-AMC in comparison (%) to Leu-MCA” value amounted to 119.7%. In addition, in data set [4] (substrate Phe-AMC, 5 mM, 37° C., 60 min), the “hydrolytic activity toward Phe-AMC in comparison (%) to Leu-MCA” value is given as 17.1%. The “hydrolytic activity toward Pro-AMC in comparison (%) to Leu-MCA” value in data set [4] (substrate Pro-AMC, 5 mM, 37° C., 60 min) was found to be 21.4%. Also, the “hydrolytic activity toward Pyr-AMC in comparison (%) to Leu-MCA” value in data set [4] (substrate Pyr-AMC, 5 mM, 37° C., 60 min) is recorded as 0.0%. Further, in data set [4] (substrate Ser-AMC, 5 mM, 37° C., 60 min), the “hydrolytic activity toward Ser-AMC in comparison (%) to Leu-MCA” value is recorded as 26.1%. Also, in [4] (substrate Thr-AMC, 5 mM, 37° C., 60 min), the “hydrolytic activity toward Thr-AMC in comparison (%) to Leu-MCA” value was found to be 0.9%. In data set [4] (substrate Val-AMC, 5 mM, 37° C., 60 min), the “hydrolytic activity toward Val-AMC in comparison (%) to Leu-MCA” value came to 4.8%. Further, the “hydrolytic activity toward Lys(Abz) Pro-PropNA in comparison (%) to Leu-MCA” value in data set [5] turned out to be 0.0%. Besides, in data set [1], the “digestion of the 14 mer” value was “not digested; also recorded: results only in the cleavage of the N-terminal Proline”. Moreover, the “partial degradation of the 33 mer” value in the data set with gliadin 33 mer (within 4 h) was “less than 50%”. For the same molecule, the “removal of N-terminal alanine from Ala-proNPY” value in the data set on Ala-proNPY is “almost totally removed”. The “digestion of denatured casein” value in the data set with denatured casein is “sequentially digest a full-length polypeptide chain, such as denatured casein”.

(Values after patent US7943340B2, “Fungal dipeptidyl peptidase IV (DPPIV) enzyme for reagent use” (priority 2003, dated 2011).)
